Measurements taken from the Human Domainome abundance scans (Beltran et al. 2025).

B1: Activity-dependent neuroprotector homeobox protein, residues 770 to 810; numbered along this chain, Q9H2P0 (parent)
chain: FLTKYFNKQPYPTRREIEKLAASLWLWKSDIASHFSNKRKK
B2: Homeobox protein cut-like 1, residues 548 to 629; numbered along this chain, P39880 (parent)
chain: GEEMDTAEIARQVKEQLIKHNIGQRIFGHYVLGLSQGSVSEILARPKPWNKLTVRGKEPFHKMKQFLSDEQNILALRSIQGR

Variants of: B1
Experiment: abundance fitness (aPCA) (normalised: wild type 0, dead -1); higher = more abundant; growth selection in yeast, the domain comes from the species named
Conditions: Homo sapiens

Abundance fitness: each site, then its substitutions
F1: C -0.854 | S -0.09 | L -1.24 | T -0.158
L20: N -0.152 | V -0.025 | H -0.269
N7: Y -0.712 | M -0.76 | G -0.365
P10: Y -0.155
Y11: R -0.035 | P -0.124 | W 0.003 | C 0.086 | E 0.02
K38: E -0.327 | Y -0.433
R39: G -0.195 | C -0.189 | S -0.085 | I -0.035
P12: A 0.048 | V -0.584
A22: E -0.162 | F -0.594 | W -0.193 | D -0.25 | Q 0.045 | Y -0.303
R15: L -0.211 | N -0.173 | V -0.149 | I -0.252 | C -0.182
L26: Y -0.151 | T 0.022 | G 0.101
N37: I 0.028 | W 0.023 | S -0.019 | L 0.061
L24: E -0.82 | R -0.339 | T -0.212
K4: A -0.735
F6: Y -0.295
A32: S -0.196 | P -0.383
W27: G 0.037
S36: G 0.083 | A -0.049
I17: L -0.019 | W 0.18 | E -0.61
H34: D -0.388 | G -0.043
K41: Y -0.378 | W 0.259 | E -0.092 | N -0.15 | H -0.214 | G -0.135
K8: H -1.09 | A -1.12
R14: P -0.391 | L -0.14 | S -0.387
I31: T -0.061 | M 0.056 | A 0.109 | D 0.022 | W -0.129
A21: K 0.138 | S -0.012 | Y -0.177 | P -0.3
K40: S -0.259 | L -0.352
S33: F -0.244 | H 0.018 | W -0.147
S23: I -0.432 | F -0.614 | E -0.116 | K 0.262 | H -0.103
Q9: T -0.053 | L -0.149 | A -0.269 | W -0.823
K28: S 0.028 | W 0.13
T3: D -0.291 | C -0.536 | G -0.132
D30: G -0.025 | L -0.376 | E -0.124
E18: C -0.232 | T -0.176 | D -0.109
F35: Q -0.238 | P -0.231 | I -0.208 | C -0.347
E16: P 0.159 | I 0.009
W25: S 0.134 | T 0.141 | E 0.13 | P -0.176
T13: F 0.044
L2: Y -0.248 | T -0.661 | V -0.369 | P -0.532
S29: Q 0.173
K19: V -0.502 | A -0.52

Variants of: B2
Experiment: as above
Conditions: Homo sapiens

Abundance fitness, by site and new letter:
A10: E -0.822 | I -0.249 | D -0.835 | L -0.874 | W -0.755 | S -0.151 | M -0.947 | N -0.692 | T -0.08 | R -0.792 | Q -0.798 | V 0.032 | H -1.24 | P -0.744 | Y -0.863 | K -0.746 | G -0.552
K14: C -0.263 | A -0.324 | D -0.343
I9: L -0.13 | F -0.547 | D -0.428 | W -0.82 | N -0.643 | M -0.292 | C -0.459 | R -0.69 | G -0.623 | V -0.103 | Y -0.495 | H -0.56 | T -0.267 | P -0.605 | S -0.672 | K -0.508 | E -0.517 | Q -0.583 | A -0.695
M4: C -0.677 | G -0.523 | H -0.304 | A -0.432 | R -0.517 | S -0.355 | I 0.101 | Q -0.2 | L 0.002 | Y -0.203 | T -0.204 | P -0.318 | K -0.36 | W -0.23 | D -0.304 | E -0.191 | F -0.244 | N -0.331
V13: F -0.911 | E -0.608 | M -0.263 | D -0.486 | C -0.238 | T -0.198 | I -0.102 | R -0.586 | W -0.721 | Y -0.812 | S -0.56 | P -0.564 | Q -0.574 | K -0.548 | G -0.53 | A -0.415 | L -0.423 | N -0.511 | H -0.574
E3: H -0.027 | T -0.057 | C -0.142 | N -0.119 | M -0.101 | A -0.064 | S -0.118 | K -0.064 | F 0.1 | Y -0.091 | I -0.081 | V -0.098 | G -0.155 | W -0.017 | R -0.145 | Q -0.089 | P -0.137 | L -0.107 | D 0.001
T6: K -0.81 | C -0.66 | S -0.468 | W -0.884 | M -1.01 | F -0.822 | L -1.02 | I -1.14 | A -0.697 | E -0.921 | Y -0.901 | P -0.385 | G -0.946 | D -0.859 | V -0.839 | R -0.896
G1: W -0.172 | Y 0.075 | Q -0.051 | T -0.035 | H -0.289 | N -0.012 | C -0.026 | K -0.035 | I 0.049 | P -0.044 | D 0.029 | E -0.036 | M 0.038 | A -0.064 | S -0.004 | L -0.03 | F -0.104 | R -0.041 | V -0.01
R11: A -0.157 | V -0.311 | K 0.069 | D -0.274 | F -0.243 | M -0.112 | T -0.131 | P -0.646 | N -0.205 | G -0.18 | Q -0.24 | Y -0.249 | H -0.102 | W -0.506 | C -0.327
E2: R -0.188 | C -0.137 | S -0.087 | T -0.117 | I -0.261 | D -0.154 | A -0.121 | V -0.17 | Y -0.175 | Q -0.126 | F -0.107 | H -0.256 | G -0.145 | K -0.116 | L -0.193 | P -0.478 | W -0.202
D5: T -0.006 | G -0.395 | H -0.294 | W -0.782 | Q -0.226 | M -0.638 | Y -0.561 | S -0.082 | K -0.274 | R -0.541 | I -0.689 | F -0.644 | E -0.163 | P -0.269 | V -0.537 | N -0.076 | L -0.817 | A -0.204
E8: K -0.113 | P -0.979 | N -0.211 | T -0.118 | L -0.091 | G -0.233 | H -0.135 | S -0.119 | A -0.118 | C -0.219 | Q -0.104 | M -0.149 | R -0.17 | D -0.032 | W -0.231 | F -0.22 | V -0.135 | I -0.22
A7: H 0.01 | D -0.136 | C -0.081 | Q -0.028 | L -0.082 | Y -0.093 | M -0.107 | F -0.053 | P -0.532 | E -0.029 | W -0.143 | R -0.093 | G -0.17 | S -0.09 | V -0.121 | K -0.003
